# Reference: IntAct's records for PubMed 17568776
# B1: RING finger and CHY zinc finger domain-containing protein 1 (Homo sapiens), Q96PM5 (parent)
# chain: MAATAREDGASGQERGQRGCEHYDRGCLLKAPCCDKLYTCRLCHDNNEDHQLDRFKVKEVQCINCEKIQHAQQTCEECSTLFGEYYCDICHLFDKDKKQYHCENCGICRIGPKEDFFHCLKCNLCLAMNLQGRHKCIENVSRQNCPICLEDIHTSRVVAHVLPCGHLLHRTCYEEMLKEGYRCPLCMHSALDMTRYWRQLDDEVAQTPMPSEYQNMTVDILCNDCNGRSTVQFHILGMKCKICESYNTAQAGGRRISLDQQ
# Variants of: B1
# Settings: with kcc2a_human CAMK2A
row,Variant,effect of a mutation on the interaction
1,MAATAREDGASGQERGQRGCEHYDRGCLLKAPCCDKLYTCRLCHDNNEDHQLDRFKVKEVQCINCEKIQHAQQTCEECSTLFGEYYCDICHLFDKDKKQYHCENCGICRIGPKEDFFHCLKCNLCLAMNLQGRHKCIENVSRQNCPICLEDIHASRVVAHVLPCGHLLHRTCYEEMLKEGYRCPLCMHSALDMTRYWRQLDDEVAQTPMPSEYQNMTVDILCNDCNGRSTVQFHILGMKCKICESYNTAQAGGRRISLDQQ [T154A],disrupting interaction
2,MAATAREDGASGQERGQRGCEHYDRGCLLKAPCCDKLYTCRLCHDNNEDHQLDRFKVKEVQCINCEKIQHAQQTCEECSTLFGEYYCDICHLFDKDKKQYHCENCGICRIGPKEDFFHCLKCNLCLAMNLQGRHKCIENVSRQNCPICLEDIHTARVVAHVLPCGHLLHRTCYEEMLKEGYRCPLCMHSALDMTRYWRQLDDEVAQTPMPSEYQNMTVDILCNDCNGRSTVQFHILGMKCKICESYNTAQAGGRRISLDQQ [S155A],disrupting interaction
